{"source": "patent US20110262525A1", "about": "“METHODS OF TREATMENT” (SCHERING CORPORATION, priority 2006, published 2011)", "molecules": {"B1": {"name": "LCF/HCA: fully human anti-IGF1R antibody comprising the mature 19D12/15H12 light chain F (LCF) and mature heavy chain A (HCA) (antibody, V domains shown)", "VH": "EVQLVQSGGGLVHPGGSLRLSCAASGFTFSSFAMHWVRQAPGKGLEWISVIDTRGATYYADSVKGRFTISRDNAKNSLYLQMNSLRAEDMAVYYCARLGNFYYGMDVWGQGTTVTVSS", "VL": "EIVLTQVPDFQSVTPKEKVTITCRASQSIGSSLHWYQQKPDQSPKLLIKYASQSLSGVPSRFSGSGSGTDFTLTINSLEAEDAAAYYCHQSSRLPHTFGGGTKVEIKRT"}}, "key": {"[1]": {"test_system": "NB-EBc1 xenograft (Neuroblastoma)", "test": "PPTP in vivo xenograft NB-EBc1", "set-up": "key to EFS activity notation (high, intermediate, indeterminate): high (!); intermediate (#); indeterminate (^)", "method": "(§1) The PPTP includes a molecularly characterized in vitro panel of cell lines (n=27) and in vivo panel of xenografts (n=61) representing most of the common types of childhood solid tumors and childhood ALL (acute lymphoblastic leukemia). LCF/HCA anti-IGF1R antibody was tested against the PPTP in vitro panel at concentrations ranging from 0.01 nM to 100 nM; and was tested against the PPTP in vivo panel at a dose of 0.5 mg per mouse administered twice weekly for four weeks via intraperitoneal injection. Three measures of antitumor activity were used: 1) response criteria modeled after the clinical setting; 2) treated-to-control (T/C) tumor volume at day 21; and 3) a time to event (4-fold increase in tumor volume) measure based on the median EFS of treated and control lines (intermediate activity required EFS (event-free survival) T/C>2, and high activity additionally required a net reduction in median tumor volume at the end of the experiment).\n(§2) Stage 1 testing involved testing an agent across the entire PPTP panel of childhood cancer xenograft lines at its maximum tolerated dose (MTD) or at a dose selected based on PK/PD (pharmacokinetic/pharmacodynamic) studies using adult preclinical models.\n(§3) In vivo solid tumor testing: For each xenograft line, 10 mice bearing subcutaneous (SC) tumors initiated treatment when the tumors were between 0.2-0.5 cm^3 in volume. Two perpendicular tumor diameters were measured at once weekly intervals with digital vernier calipers. Assuming tumors to be spherical, volumes were calculated from the formula (π/6)×d3, where d represented the mean diameter.\n(§4) Drug: LCF/HCA was dissolved in 20mM sodium acetate pH 5 buffer containing 150 mM sodium chloride, and administered intraperitoneally twice weekly for 4 consecutive weeks at a dose of 0.5 mg per animal. The antibody was provided to each testing site in coded vials for blinded testing according the PPTP's standard operating procedures.\n(§5) Median Group Response: Each individual mouse in each treatment group was assigned a response score (see Tables above) and a median score for the treatment group was calculated and then each treatment group was assigned an overall response according to the table below.\n(§6) Statistical Methods: Event-free survival (EFS) distributions of each treatment group were compared to the EFS distribution of the respective control group using the exact log rank test. P-values were 2-sided & were not adjusted for multiple comparisons given the exploratory nature of this study. P-values<0.05 were considered to be significant."}, "[2]": {"test_system": "NB-1691 xenograft (Neuroblastoma)", "test": "PPTP in vivo xenograft NB-1691", "conditions": "NB-1691 (Neuroblastoma) xenograft, 0.5 mg per mouse ip twice weekly for four weeks", "method": "as §1, §2, §3\n(§7) Drug: LCF/HCA was dissolved in 20mM sodium acetate pH 5 buffer containing 150 mM sodium chloride, and administered intraperitoneally twice weekly for 4 consecutive weeks at a dose of 0.5 mg per animal. […]\n(§8) Median Group Response: Each individual mouse in each treatment group was assigned a response score (see Tables above) and a median score for the treatment group was calculated and then each treatment group was assigned an overall response according to the table below. […]"}, "KT-10 xenograft (Wilms)": {"test_system": "KT-10 xenograft (Wilms)", "test": "PPTP in vivo xenograft KT-10", "conditions": "KT-10 (Wilms) xenograft, 0.5 mg per mouse ip twice weekly for four weeks", "method": "as §1, §2, §3, §7, §8"}, "[3]": {"test_system": "gastric cancer cell line SNU-16", "test": "Cell-Titer Glo proliferation assay, SNU-16", "assay_type": "cell-based, human", "conditions": "0.000256-100 nM antibody"}, "[4]": {"test_system": "SK-NEP-1 xenograft (Ewings)", "test": "PPTP in vivo xenograft SK-NEP-1", "conditions": "SK-NEP-1 (Ewings) xenograft, 0.5 mg per mouse ip twice weekly for four weeks", "method": "as §1, §2, §3, §7, §8"}, "[5]": {"test_system": "Rh28 xenograft (ALV Rhabdomyosarcoma)", "test": "PPTP in vivo xenograft Rh28", "set-up": "key to EFS activity notation (high, intermediate, indeterminate): high (!); intermediate (#); indeterminate (^)", "method": "as §1, §2, §3, §4, §5, §6"}, "[6]": {"test_system": "OS-1 xenograft (Osteosarcoma)", "test": "PPTP in vivo xenograft OS-1", "set-up": "key to EFS activity notation (high, intermediate, indeterminate): high (!); intermediate (#); indeterminate (^)", "conditions": "OS-1 (Osteosarcoma) xenograft, 0.5 mg per mouse ip twice weekly for four weeks", "method": "as §1, §2, §3, §7, §8"}, "[7]": {"test_system": "NB-1643 xenograft (Neuroblastoma)", "test": "PPTP in vivo xenograft NB-1643", "conditions": "NB-1643 (Neuroblastoma) xenograft, 0.5 mg per mouse ip twice weekly for four weeks", "method": "as §1, §2, §3, §4, §5, §6"}, "[8]": {"test_system": "OS-33 xenograft (Osteosarcoma)", "test": "PPTP in vivo xenograft OS-33", "conditions": "OS-33 (Osteosarcoma) xenograft, 0.5 mg per mouse ip twice weekly for four weeks", "text": "The PPTP includes a molecularly characterized in vitro panel of cell lines (n=27) and in vivo panel of xenografts (n=61) representing most of the common types of childhood solid tumors and childhood ALL (acute lymphoblastic leukemia).\nas §2, §3\nThe antibody was provided to each testing site in coded vials for blinded testing according the PPTP's standard operating procedures.\nas §5, §6"}, "[9]": {"test_system": "A498 human kidney carcinoma tumor cells", "test": "A498 renal cell carcinoma xenograft in athymic nude mice", "assay_type": "in vivo, mouse", "conditions": "0.1 mg/injection ip two times per week, seven times starting on day 12", "method": "Athymic nude mice were inoculated with A498 human kidney carcinoma tumor cells in the right flank, subcutaneously, along with Matrigel (1:1::cells:gel). In these experiments, 5×10^6 cells/mouse in a 1:1 mix with regular matrigel. The LCF/HCA anti-IGF1R antibody was inoculated intraperitoneally (ip) (0.1 mg/injection). Mice were dosed with antibody two times per week, by intraperitoneal injection, seven times starting on day 12. Tumor size was measured with calipers and the data was entered into the LABCAT data experimental collection and analysis program program (Innovative Programming Associates, Inc.; Princeton, N.J.). Mice were grouped with average size of 100 mm^3. Tumor size and body weight were measured twice weekly."}, "KT-13 xenograft (Wilms)": {"test_system": "KT-13 xenograft (Wilms)", "test": "PPTP in vivo xenograft KT-13", "conditions": "KT-13 (Wilms) xenograft, 0.5 mg per mouse ip twice weekly for four weeks", "method": "as §1, §2, §3, §7, §8"}, "[10]": {"test_system": "OS-31 xenograft (Osteosarcoma)", "test": "PPTP in vivo xenograft OS-31", "conditions": "OS-31 (Osteosarcoma) xenograft, 0.5 mg per mouse ip twice weekly for four weeks", "method": "as §1, §2, §3, §7, §8"}, "[11]": {"conditions": "0.5 mg per mouse ip twice weekly for four weeks"}, "[12]": {"conditions": "day 21, 0.5 mg per mouse ip twice weekly for four weeks"}}, "note": "Marks after values point to notes of the source that are not given here.", "data": [{"molecule": "B1", "values": [{"measurement": "EFS T/C", "setting": "[1]; [11]", "result": "> 2.0"}, {"measurement": "EFS activity notation (high, intermediate, indeterminate)", "setting": "[1]; [11]", "result": "#"}, {"measurement": "Median Final RTV", "setting": "[1]; [11]", "result": "1.4#"}, {"measurement": "Overall Group Response", "setting": "[1]; [11]", "result": "PD2 (1 < MS ≦ 3)"}, {"measurement": "Tumor Volume T/C", "setting": "[1]; [12]", "result": 0.8}, {"measurement": "EFS T/C", "setting": "[2]", "result": 0.9}, {"measurement": "Median Final RTV", "setting": "[2]", "result": ">4"}, {"measurement": "Tumor Volume T/C", "setting": "[2]; day 21", "result": 1.34}, {"measurement": "EFS T/C", "setting": "KT-10 xenograft (Wilms)", "result": 1.3}, {"measurement": "Median Final RTV", "setting": "KT-10 xenograft (Wilms)", "result": ">4"}, {"measurement": "Tumor Volume T/C", "setting": "KT-10 xenograft (Wilms); day 21", "result": 0.43}, {"measurement": "proliferation of gastric cancer cell line", "setting": "[3]", "result": "inhibitied"}, {"measurement": "EFS T/C", "setting": "[4]", "result": 0.9}, {"measurement": "Median Final RTV", "setting": "[4]", "result": ">4"}, {"measurement": "Tumor Volume T/C", "setting": "[4]; day 21", "result": 1.08}, {"measurement": "EFS T/C", "setting": "[5]; [11]", "result": "> 2.6"}, {"measurement": "EFS activity notation (high, intermediate, indeterminate)", "setting": "[5]; [11]", "result": "#"}, {"measurement": "Median Final RTV", "setting": "[5]; [11]", "result": "2.9#"}, {"measurement": "Overall Group Response", "setting": "[5]; [11]", "result": "PD2 (1 < MS ≦ 3)"}, {"measurement": "Tumor Volume T/C", "setting": "[5]; [12]", "result": 0.36}, {"measurement": "EFS T/C", "setting": "[6]", "result": "> 1.3"}, {"measurement": "EFS activity notation (high, intermediate, indeterminate)", "setting": "[6]", "result": "^"}, {"measurement": "Tumor Volume T/C", "setting": "[6]; day 21", "result": 0.16}, {"measurement": "EFS T/C", "setting": "[7]", "result": 1.8}, {"measurement": "Median Final RTV", "setting": "[7]", "result": ">4"}, {"measurement": "Overall Group Response", "setting": "[7]", "result": "PD2 (1 < MS ≦ 3)"}, {"measurement": "Tumor Volume T/C", "setting": "[7]; day 21", "result": 0.53}, {"measurement": "EFS T/C", "setting": "[8]", "result": 0.9}, {"measurement": "Median Final RTV", "setting": "[8]", "result": ">4"}, {"measurement": "Tumor Volume T/C", "setting": "[8]; day 21", "result": 0.79}, {"measurement": "in vivo growth of renal cell carcinoma tumor", "setting": "[9]", "result": "in vivo growth inhibition"}, {"measurement": "EFS T/C", "setting": "KT-13 xenograft (Wilms)", "result": 1.1}, {"measurement": "Median Final RTV", "setting": "KT-13 xenograft (Wilms)", "result": ">4"}, {"measurement": "Tumor Volume T/C", "setting": "KT-13 xenograft (Wilms); day 21", "result": 0.84}, {"measurement": "EFS T/C", "setting": "[10]", "result": 1.3}, {"measurement": "Median Final RTV", "setting": "[10]", "result": ">4"}, {"measurement": "Tumor Volume T/C", "setting": "[10]; day 21", "result": 0.88}]}]}
